# B1: G1-Fc fusion proteins binding with antigen (Fc fusion)
# chain: QVQLVESGGDLVQPGGSLTLACEASGFTISSTGMTWVRQAPGKELDWVGDINIPGTDTDYDISVKGRFTISKDHAKNTVYLQMTSLRPEDTAIYYCAKQGANLRQGVQSPGTLVTVSSEPKSSDKTHTCPPCPAPELLGGPSVFLFPPKPKDTLYITREPEVTCVVVDVSHEDPEVKFNWYVDGVEVHNAKTKPREEQYNSTYRVVSVLTVLHQDWLNGKEYKCKVSNKALPAPIEKTISKAKGQPREPQVYTLPPSREEMTKNQVSLTCLVKGFYPSDIAVEWESNGQPENNYKTTPPVLDSDGSFFLYSKLTVDKSRWQQGNVFSCSVMHEALHNHYTQKSLSLSPGK
# B2: huG1-Fc fusion proteins binding with antigen (Fc fusion)
# chain: QVQLVESGGGLVQPGGSLRLSCAASGFTISSTGMTWVRQAPGKGLEWVGDINIPGTDTDYDISVKGRFTISKDHAKNTVYLQMNSLRAEDTAVYYCAKQGANLRQGVQGQGTLVTVSSEPKSSDKTHTCPPCPAPELLGGPSVFLFPPKPKDTLYITREPEVTCVVVDVSHEDPEVKFNWYVDGVEVHNAKTKPREEQYNSTYRVVSVLTVLHQDWLNGKEYKCKVSNKALPAPIEKTISKAKGQPREPQVYTLPPSREEMTKNQVSLTCLVKGFYPSDIAVEWESNGQPENNYKTTPPVLDSDGSFFLYSKLTVDKSRWQQGNVFSCSVMHEALHNHYTQKSLSLSPGK
# B3: huA3-Fc fusion proteins binding with antigen (Fc fusion)
# chain: QVQLVESGGGLVQPGGSLRLSCAASGFTFSRHGMTWVRQAPGKGLEYVGEINIPGDDVDYDISVKGRFTISRDNAKNTLYLQMNSLRAEDTAVYYCARAGENMRLVTRGQGTLVTVSSEPKSSDKTHTCPPCPAPELLGGPSVFLFPPKPKDTLYITREPEVTCVVVDVSHEDPEVKFNWYVDGVEVHNAKTKPREEQYNSTYRVVSVLTVLHQDWLNGKEYKCKVSNKALPAPIEKTISKAKGQPREPQVYTLPPSREEMTKNQVSLTCLVKGFYPSDIAVEWESNGQPENNYKTTPPVLDSDGSFFLYSKLTVDKSRWQQGNVFSCSVMHEALHNHYTQKSLSLSPGK
# B4: F6-Fc fusion proteins binding with antigen (Fc fusion)
# chain: QVQLVESGGGLAQPGGSLRLSCEASGSTLDSYTVAWFRQAPGKEREGVSCASRSGASTNYANSVKGRFTISRDNAKNTVYLQMNSLKPEDTGVYYCAAYRNFGNFCVMGRYEYDEWGQGTQVTVSSEPKSSDKTHTCPPCPAPELLGGPSVFLFPPKPKDTLYITREPEVTCVVVDVSHEDPEVKFNWYVDGVEVHNAKTKPREEQYNSTYRVVSVLTVLHQDWLNGKEYKCKVSNKALPAPIEKTISKAKGQPREPQVYTLPPSREEMTKNQVSLTCLVKGFYPSDIAVEWESNGQPENNYKTTPPVLDSDGSFFLYSKLTVDKSRWQQGNVFSCSVMHEALHNHYTQKSLSLSPGK
# B5: huF6-Fc fusion proteins binding with antigen (Fc fusion)
# chain: EVQLVESGGGLVQPGGSLRLSCAASGSTLDSYTVAWVRQAPGKGLEWVSCASRSGASTNYANSVKGRFTISRDNSKNTVYLQMNSLRAEDTAVYYCAAYRNFGNFCVMGRYEYDEWGQGTLVTVSSEPKSSDKTHTCPPCPAPELLGGPSVFLFPPKPKDTLYITREPEVTCVVVDVSHEDPEVKFNWYVDGVEVHNAKTKPREEQYNSTYRVVSVLTVLHQDWLNGKEYKCKVSNKALPAPIEKTISKAKGQPREPQVYTLPPSREEMTKNQVSLTCLVKGFYPSDIAVEWESNGQPENNYKTTPPVLDSDGSFFLYSKLTVDKSRWQQGNVFSCSVMHEALHNHYTQKSLSLSPGK
# B6: A3-Fc fusion proteins binding with antigen (Fc fusion)
# chain: QVQLVESGGGLVQAGGSLTLSCVASGFTFSRHGMTWVRQAPGKELDYVGEINIPGDDVDYDISVKGRFTISRDNAKNTVYLHMTNLKVEDTATYWCAQAGENMRLVTRRQGTQVTVSTEPKSSDKTHTCPPCPAPELLGGPSVFLFPPKPKDTLYITREPEVTCVVVDVSHEDPEVKFNWYVDGVEVHNAKTKPREEQYNSTYRVVSVLTVLHQDWLNGKEYKCKVSNKALPAPIEKTISKAKGQPREPQVYTLPPSREEMTKNQVSLTCLVKGFYPSDIAVEWESNGQPENNYKTTPPVLDSDGSFFLYSKLTVDKSRWQQGNVFSCSVMHEALHNHYTQKSLSLSPGK
# Target: Staphylococcus aureus alpha toxin (Staphylococcus aureus, UniProt P09616)
# Sequence (P09616 27-319 limits assumed): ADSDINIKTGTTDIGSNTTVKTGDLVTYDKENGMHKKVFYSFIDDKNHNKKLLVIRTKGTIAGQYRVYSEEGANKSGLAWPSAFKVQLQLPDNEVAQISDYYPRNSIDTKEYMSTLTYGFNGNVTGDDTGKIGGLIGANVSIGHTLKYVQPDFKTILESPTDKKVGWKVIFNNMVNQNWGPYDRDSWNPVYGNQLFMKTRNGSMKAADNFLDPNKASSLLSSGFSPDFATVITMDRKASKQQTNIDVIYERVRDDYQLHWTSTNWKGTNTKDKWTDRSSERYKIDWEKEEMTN
binder,measurement,value
B1,EC50,7 ng/mL
B2,EC50,6.35 ng/mL
B3,EC50,5.97 ng/mL
B4,EC50,3 ng/mL
B5,EC50,2.72 ng/mL
B6,EC50,9 ng/mL

# Source: US20240059764A1 (STARMAB BIOLOGICS SUZHOU, published 2024)
